Results published in patent US20150037277A1.

Tests used:
Test in all cases: ELISA, plate coated with OVA-peptide conjugate, adjuvant-only control egg antibody, dilution not stated
[1] = target: IL-10 Peptide #1 (SEQ ID NO: 1) conjugated to hen ovalbumin (Chicken, quail, turkey; hen) (UniProt P01012)
[2] = target: IL-10 Peptide #3 (SEQ ID NO: 4) conjugated to hen ovalbumin (Chicken, quail, turkey; hen) (UniProt P01012)
[3] = target: IL-10 Peptide #4 (SEQ ID NO: 5) conjugated to hen ovalbumin (Chicken, quail, turkey; hen) (UniProt P01012)

optical density [1]: 0.562 OD at 450 nm
optical density [2]: 0.499 OD at 450 nm
optical density [3]: 0.6 OD at 450 nm
Substance: adjuvant only injected control egg antibody
